Assay results as given in patent US20040038887A1 (Harvard, published 2004).
No end group written: not given here.

What was measured:
[1] = target: T1, Recombinant water-soluble HLA-DR-2 molecules (DRB1*1501) (human, UniProt P01903 26-216; P01911 30-227, limits assumed); assay: competition ELISA, unlabeled inhibitor against biotinylated MBP 86-100 on soluble HLA-DR-2 (LB3.1 capture, streptavidin-AP)
T1 construct: Expressed in Drosophila S2 cells and purified on a Protein A-LB3.1 column 'as described (Kalandadze et al. 1996)'; also called HLA DR-2 (DRB1*1501); purified HLA-DR-2

[2] = target: T2, Recombinant water-soluble HLA-DR-2 molecules (DRB1*1501) (human); assay: ELISA, biotinylated MBP 86-100 (0.13 uM) on soluble HLA-DR-2, no competitor; background 0.1
T2 chain 1: not shown
T2 chain 2: not shown

B1: MBP 85-99 (SEQ ID NO: 2), unlabeled (peptide)
peptide: ENPVVHFFKNIVTPR
notes: also called unlabeled MBP 85-99 peptide; synthetic unlabeled peptide control MBP 85-99
B1: binds [1].

SGSGNPVVHFFKNIVTPRT (not fully specified) [Biotinylated MBP 86-100 (SEQ ID NO: 1)] showed a signal at 410 nm without competitor (absorbance at 410 nm) [2] of 0.8 to 0.9.
